In the experiment the target is T1, 6xHis-SUMO-tagged MYO18A motor domain (aa 408-1,242) (UniProt Q92614 408-1242).
T1 sequence (looked up): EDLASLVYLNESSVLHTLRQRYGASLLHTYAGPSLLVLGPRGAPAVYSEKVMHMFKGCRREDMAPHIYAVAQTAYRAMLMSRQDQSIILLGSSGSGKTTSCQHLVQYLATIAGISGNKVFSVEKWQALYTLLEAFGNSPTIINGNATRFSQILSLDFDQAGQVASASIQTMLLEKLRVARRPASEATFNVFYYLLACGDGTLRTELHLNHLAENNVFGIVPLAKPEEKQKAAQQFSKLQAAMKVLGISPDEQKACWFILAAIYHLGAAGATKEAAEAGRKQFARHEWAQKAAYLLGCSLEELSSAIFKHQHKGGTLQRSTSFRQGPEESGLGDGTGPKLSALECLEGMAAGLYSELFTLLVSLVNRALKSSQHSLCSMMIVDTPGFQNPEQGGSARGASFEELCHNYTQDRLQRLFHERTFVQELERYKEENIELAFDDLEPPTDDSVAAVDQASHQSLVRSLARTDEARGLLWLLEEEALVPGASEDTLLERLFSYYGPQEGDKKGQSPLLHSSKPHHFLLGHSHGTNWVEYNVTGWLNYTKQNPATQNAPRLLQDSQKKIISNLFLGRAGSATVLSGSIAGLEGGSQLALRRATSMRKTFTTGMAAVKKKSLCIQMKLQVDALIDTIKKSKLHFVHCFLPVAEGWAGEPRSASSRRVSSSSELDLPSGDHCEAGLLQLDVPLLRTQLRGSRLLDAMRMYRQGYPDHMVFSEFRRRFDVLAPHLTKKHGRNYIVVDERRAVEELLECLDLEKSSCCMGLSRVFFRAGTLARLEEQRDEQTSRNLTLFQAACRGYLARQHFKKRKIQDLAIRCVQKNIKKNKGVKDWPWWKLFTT
Nature of the experiment: pull-down.

B1: GOLPH3 DQ-DVQ phosphomimetic mutant, purified, bacterially expressed (natural protein, UniProt Q9H4A6 1-298, looked up)
chain: MTSLTQRSSGLVQRRTEASRNAADKERAAGGGAGSSEDDAQSRRDEQDDDDKGDSKETRLTLMEEVLLLGLKDREGYTSFWNDCISSGLRGCMLIELALRGRLQLEACGMRRKSLLTRKVICKSDAPTGDVLLDEALKHVKEDQPPEDVQNWIELLSGETWNPLKLHYQLRNVRERLAKNLVEKGVLTTEKQNFLLFDMTTHPLTNNNIKQRLIKKVQEAVLDKWVNDPHRMDRRLLALIYLAHASDVLENAFAPLLDEQYDLATKRVRQLLDLDPEVECLKANTNEVLWAVVAAFTK
Take B1: the “fold of interaction versus WT” value stood at 2.2 fold.

B2: GOLPH3 EQ-EVQ phosphomimetic mutant, purified, bacterially expressed (natural protein, UniProt Q9H4A6 1-298, looked up)
chain: MTSLTQRSSGLVQRRTEASRNAADKERAAGGGAGSSEDDAQSRRDEQDDDDKGDSKETRLTLMEEVLLLGLKDREGYTSFWNDCISSGLRGCMLIELALRGRLQLEACGMRRKSLLTRKVICKSDAPTGDVLLDEALKHVKEEQPPEEVQNWIELLSGETWNPLKLHYQLRNVRERLAKNLVEKGVLTTEKQNFLLFDMTTHPLTNNNIKQRLIKKVQEAVLDKWVNDPHRMDRRLLALIYLAHASDVLENAFAPLLDEQYDLATKRVRQLLDLDPEVECLKANTNEVLWAVVAAFTK
As to B2, the “fold of interaction versus WT” value worked out at 1.9 fold.

Values taken from PMC4018323 (Cell, 2014).
